In PMC10689493 (Nature Communications, 2023):

B1: S2P6 mAb (antibody, V domains shown)
VH: EVQLVQSGAEVKKPGASVKVSCKASGYTFTSQYMHWVRQAPGQGLEWIGIINPSGVHTSYAQKFQGRVTLTRDTSTSTLYMELSSLRSEDTAVYYCARGSPKGAFDYWGQGTLVTVSS
VL: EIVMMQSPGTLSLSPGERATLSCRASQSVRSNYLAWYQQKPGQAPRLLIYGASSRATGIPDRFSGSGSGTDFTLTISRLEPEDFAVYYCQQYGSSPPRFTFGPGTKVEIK
notes: IgG; IGHV1-46/IGKV3-20; source: Expi293F, transfected, purified (Protein A)
B2: CC40.8 mAb (antibody, V domains shown)
VH: EVQLLESGGGLVQPGGSLRLSCAASGFTFSSYVMTWARQAPGKGLEWVSAISGTGYTYYADSVKGRFTVSRDNSKNTLFLQMSSLRAEDTAVYYCAITMAPVVWGQGTTVTVSS
VL: SYELTQPPSVSVSPGQTARITCSGDALPKRYAYWYQQKSGQAPILVIYEDKKRPSGIPERLSGSKSGTVATLTISGAQVEDEADYYCYSTDSSGNHAVFGGGTQLTVL
notes: IgG; source: Expi293F, transfected, purified (Protein A)

Tests used:
[1] = target: SARS-CoV-1 Spike protein, 2 P (SARS-CoV-1, isolate , UniProt P59594, stabilised); test: ELISA; conditions: both partners purified
[2] = target: MERS Spike protein, 2 P (MERS-CoV, isolate  (entry: …, UniProt K9N5Q8, stabilised)); test: ELISA; conditions: both partners purified

Row | Binder | binding result [1] | binding result [2]
1 | B1 | binds | binds
2 | B2 | binds | 
